Source: patent US20250250357A1
Each block holds one substance with its values, some of them ahead of it.

Legend:
[1] = target: human MSLN-R3-3 polypeptide (human); test: ELISA, coated antigen, antibody 1 nM
[2] = target: human MSLN-R3-3 polypeptide (human); test: ELISA, coated antigen, antibody 0.1 nM
[3] = target: human MSLN-R3-3 polypeptide (human); test: ELISA, coated antigen, antibody 0.01 nM
[4] = target: human MSLN-R3-3 polypeptide (human); test: ELISA, coated antigen, antibody 0.001 nM
[5] = target: human MSLN-R3-3 polypeptide (human); test: ELISA, coated antigen, antibody 0.0001 nM
[6] = target: human MSLN-R3-3 polypeptide (human); test: ELISA, coated antigen, no antibody (blank)
[7] = target: human MSLN-R3-rFc protein (human) (UniProt Q13421); test: ELISA, antibody 1 nM
[8] = target: human MSLN-R3-rFc protein (human) (UniProt Q13421); test: ELISA, antibody 4 nM
[9] = target: human MSLN-R3-rFc protein (human) (UniProt Q13421); test: ELISA, antibody 20 nM
[10] = target: human MSLN-R3-rFc protein (human) (UniProt Q13421); test: ELISA, antibody 100 nM
[11] = target: human MSLN-R3-rFc protein (human) (UniProt Q13421); test: ELISA, antibody 0.0064 nM
[12] = target: human MSLN-R3-rFc protein (human) (UniProt Q13421); test: ELISA, antibody 0.032 nM
[13] = target: human MSLN-FL-his protein (human) (UniProt Q13421); test: ELISA, antibody 0.0001 nM
[14] = target: human MSLN protein endogenously expressed on OVCAR3 tumor cells (human) (UniProt Q13421); test: FACS on OVCAR3 cells
[15] = target: human MSLN full-length protein (NCBI: AAH09272.1) expressed on HEK293T-hMSLN-B8 cells (human) (UniProt Q13421); test: FACS on HEK293T-hMSLN-B8 cells
[16] = target: human MSLN-R3 protein (Met487-Ser606 of NCBI AAH09272.1) expressed on HEK293T-hMSLN-R3 cells (human) (UniProt Q13421); test: FACS on HEK293T-hMSLN-R3 cells
[17] = target: monkey MSLN full-length protein (NCBI: XP_028696439.1) expressed on HEK293T-monkey MSLN cells (monkey); test: FACS on HEK293T-monkey MSLN cells

Sequence of human MSLN-R3-rFc protein (human) (Q13421 495-606): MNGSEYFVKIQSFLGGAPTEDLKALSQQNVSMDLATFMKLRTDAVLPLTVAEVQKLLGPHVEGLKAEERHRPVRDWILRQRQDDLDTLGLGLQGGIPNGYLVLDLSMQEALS
Sequence of human MSLN-FL-his protein (human) (Q13421 other isoform, or with tags, fused parts or gaps): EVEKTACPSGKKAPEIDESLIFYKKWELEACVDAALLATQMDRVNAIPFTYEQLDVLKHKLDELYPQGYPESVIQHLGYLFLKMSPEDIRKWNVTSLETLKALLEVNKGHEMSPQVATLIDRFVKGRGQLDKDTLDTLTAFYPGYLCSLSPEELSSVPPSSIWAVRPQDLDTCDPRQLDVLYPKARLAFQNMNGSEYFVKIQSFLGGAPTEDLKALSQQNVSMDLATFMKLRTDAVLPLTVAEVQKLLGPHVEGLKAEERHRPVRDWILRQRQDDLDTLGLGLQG
Sequence of human MSLN protein endogenously expressed on OVCAR3 tumor cells (human) (Q13421 other isoform, or with tags, fused parts or gaps): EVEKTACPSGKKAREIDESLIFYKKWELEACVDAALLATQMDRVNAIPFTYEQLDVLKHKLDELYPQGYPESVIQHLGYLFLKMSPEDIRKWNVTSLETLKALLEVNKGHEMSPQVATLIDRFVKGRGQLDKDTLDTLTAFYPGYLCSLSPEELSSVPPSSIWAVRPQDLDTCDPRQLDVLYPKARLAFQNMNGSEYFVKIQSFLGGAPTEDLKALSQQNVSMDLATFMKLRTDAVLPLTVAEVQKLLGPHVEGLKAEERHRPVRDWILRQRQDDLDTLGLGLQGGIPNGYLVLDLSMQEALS
Sequence of human MSLN-R3 protein (Met487-Ser606 of NCBI AAH09272.1) expressed on HEK293T-hMSLN-R3 cells (human) (Q13421 495-614): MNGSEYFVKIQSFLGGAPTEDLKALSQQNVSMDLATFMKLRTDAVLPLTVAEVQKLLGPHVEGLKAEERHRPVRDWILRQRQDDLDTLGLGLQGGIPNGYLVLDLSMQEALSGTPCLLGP
Sequence of human MSLN full-length protein (NCBI: AAH09272.1) expressed on HEK293T-hMSLN-B8 cells (human) (Q13421 other isoform, or with tags, fused parts or gaps limits assumed): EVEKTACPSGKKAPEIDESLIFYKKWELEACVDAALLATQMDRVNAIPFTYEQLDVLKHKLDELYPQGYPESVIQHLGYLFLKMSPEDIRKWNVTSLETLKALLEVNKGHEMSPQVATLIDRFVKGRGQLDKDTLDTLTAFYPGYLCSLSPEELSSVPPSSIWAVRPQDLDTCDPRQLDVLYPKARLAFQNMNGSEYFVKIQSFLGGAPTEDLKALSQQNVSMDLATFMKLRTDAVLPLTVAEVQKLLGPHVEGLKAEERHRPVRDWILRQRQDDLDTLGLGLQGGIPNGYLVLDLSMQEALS

- OD450 [1]: 0.06
- OD450 [2]: 0.06
- OD450 [3]: 0.06
- OD450 [4]: 0.06
- OD450 [5]: 0.07
- OD450 [6]: 0.07
Substance: anti-hel-hIgG1 (negative control antibody against hen egg lysozyme)

- OD450 nm [7]: 0.11
- OD450 nm [8]: 0.23
- OD450 nm [9]: 0.86
- OD450 nm [10]: 1.11
- OD450 nm [11]: 0.16
Substance: anti-human MSLN antibody (purchased from Acro, Cat. No. MSN-M30)

- OD450 nm [7]: 0.09
- OD450 nm [8]: 0.15
- OD450 nm [10]: 0.21
- OD450 nm [12]: 0.11
- OD450 nm [13]: 0.04
Substance: hIgG1 (human IgG1 control antibody)

- Maximum mean fluorescence intensity [14]: 122
- Maximum mean fluorescence intensity [15]: 267
- Maximum mean fluorescence intensity [16]: 102
- Maximum mean fluorescence intensity [17]: 102
Substance: hIgG1 negative control antibody (anti-hel-hIgG1, against hen egg lysozyme)
